Assay results as given in PMC9565801 (Science Advances, 2022).

Target: the molecule itself
Assay: crystal structure

Protein | stoichiometry N
ketosteroid isomerase (KSI) Y32F/Y57F from Pseudomonas putida (enzyme) MNLPTAQEVQGLMARYIELVDVGDIEAIVQMFADDATVEDPFGQPPIHGREQIAAFFRQGLGGGKVRACLTGPVRASHNGCGAMPFRVEMVWNGQPCALDVIDVMRFDEHGRIQTMQAYWSEVNLSVREPQ | 2
ketosteroid isomerase (KSI) Y57F from Pseudomonas putida (enzyme) MNLPTAQEVQGLMARYIELVDVGDIEAIVQMYADDATVEDPFGQPPIHGREQIAAFFRQGLGGGKVRACLTGPVRASHNGCGAMPFRVEMVWNGQPCALDVIDVMRFDEHGRIQTMQAYWSEVNLSVREPQ | 2
